Source: PMC12551710, “The hook-like adaptor and cargo-binding (HAC) domain in the kinesin-2 tail enables adaptor assembly and cargo recognition” (Science Advances, 2025)

T1: KIF3B C-terminal region (BCT), residues 475 to 747 (Mus musculus, UniProt Q61771 475-747)
T1 construct: KIF3B, Mus musculus, NCBI NP_032470.3, C-terminal region residues 475 to 747 (BCT), without expression tags; residues 580 to 675 are resolved; also called KIF3B tail; source: E. coli BL21 (DE3), coexpressed with the KIF3A tail from pETDuet-1, purified within the reconstituted complex
T1 sequence (looked up): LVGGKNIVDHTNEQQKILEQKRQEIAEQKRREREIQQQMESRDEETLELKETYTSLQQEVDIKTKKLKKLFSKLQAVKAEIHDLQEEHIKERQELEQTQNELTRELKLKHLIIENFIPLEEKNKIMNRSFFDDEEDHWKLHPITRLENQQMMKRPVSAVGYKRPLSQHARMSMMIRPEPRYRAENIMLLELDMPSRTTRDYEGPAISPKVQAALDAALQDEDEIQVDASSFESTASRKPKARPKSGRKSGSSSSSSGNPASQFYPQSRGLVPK

B1: KIF3A C-terminal region (ACT), residues 481 to 701 (domain or fragment, Mus musculus, UniProt P28741 481-701, looked up)
chain: VIVGGVDLLAKAEEQEKLLEESNMELEERRRRAEQLRKELEEKEQERLDIEEKYTSLQEEAQGKTKKLKKVWTMLMAAKSEMADLQQEHQREIEGLLENIRQLSRELRLQMLIIDNFIPQDYQEMIENYVHWNEDIGEWQLKCVAYTGNNMRKQTPVPDKKERDPFEVDLSHVYLAYTEESLRQSLMKLERPRTSKGKARPKMGRRKRSAKPETVIDSLLQ
notes: KIF3A, Mus musculus, NCBI NP_032469.2, C-terminal region residues 481 to 701 (ACT); also called KIF3A tail; source: E. coli BL21 (DE3), coexpressed with the KIF3B tail from pETDuet-1, purified within the reconstituted complex
B2: ARM domain of APC (APCARM), residues 338 to 1010 (domain or fragment, Mus musculus, UniProt Q61315 338-1010, looked up)
chain: SQDSCISMRQSGCLPLLIQLLHGNDKDSVLLGNSRGSKEARARASAALHNIIHSQPDDKRGRREIRVLHLLEQIRAYCETCWEWQEAHEQGMDQDKNPMPAPVEHQICPAVCVLMKLSFDEEHRHAMNELGGLQAIAELLQVDCEMYGLTNDHYSVTLRRYAGMALTNLTFGDVANKATLCSMKGCMRALVAQLKSESEDLQQVIASVLRNLSWRADVNSKKTLREVGSVKALMECALEVKKESTLKSVLSALWNLSAHCTENKADICAVDGALAFLVGTLTYRSQTNTLAIIESGGGILRNVSSLIATNEDHRQILRENNCLQTLLQHLKSHSLTIVSNACGTLWNLSARNPKDQEALWDMGAVSMLKNLIHSKHKMIAMGSAAALRNLMANRPAKYKDANIMSPGSSLPSLHVRKQKALEAELDAQHLSETFDNIDNLSPKASHRSKQRHKQNLYGDYAFDANRHDDSRSDNFNTGNMTVLSPYLNTTVLPSSSSSRGSLDSSRSEKDRSLERERGIGLSAYHPTTENAGTSSKRGLQITTTAAQIAKVMEEVSAIHTSQDDRSSASTTEFHCVADDRSAARRSSASHTHSNTYNFTKSENSNRTCSMPYAKVEYKRSSNDSLNSVTSSDGYGKRGQMKPSVESYSEDDESKFCSYGQYPADLAHKIHSAN
notes: adenomatous polyposis coli (APC), Mus musculus, NCBI AAB59632.1, ARM domain residues 338 to 1010, without expression tags; also called APC ARM domain; source: E. coli BL21 (DE3), purified; E. coli lysate in the pull-down

Experiments:
Conditions in all cases: both partners purified
[1] = target: T1, KIF3B C-terminal region (BCT), residues …; experiment: cryo-EM structure; ABK complex (KIF3A 481-701, KIF3B 475-747, KAP3 1-693), 0.75 mg/ml, single-particle, two maps
[2] = target: B2; experiment: cryo-EM structure; ABK-APCARM complex, 0.75 mg/ml and 0.375 mg/ml (tilted stage 30° and 40°), single-particle, merged datasets
[3] = target: T2, KIF3A/B/KAP3 cargo-binding domain complex (ABK), wild type (Mus musculus, UniProt P28741 481-701; Q61771 475-747; P70188-1 1-693); experiment: SPR; Biacore T200; APCARM immobilised on CM5 chip at around 200 RU by amine coupling; kinesin-2 complexes injected at 6.25 to 50 nM, 30 μl/min, 15°C; 20 mM Hepes pH 8.0, 150 mM NaCl, 1 mM dithiothreitol, 0.005% Tween 20; KD from Scatchard plot analysis
T2 construct: KIF3A, Mus musculus, NCBI NP_032469.2, C-terminal region residues 481 to 701 (ACT); KIF3B, Mus musculus, NCBI NP_032470.3, C-terminal region residues 475 to 747 (BCT); KAP3A, Mus musculus, NCBI NP_001292572.1, residues 1 to 693; The His tag is named on the complexes of the SPR experiment; also called ABK (WT); KIF3A/B tail/KAP3 complex; source: E. coli BL21 (DE3), reconstituted and purified (size …)
T2 sequence (P70188 1-693, one chain of several): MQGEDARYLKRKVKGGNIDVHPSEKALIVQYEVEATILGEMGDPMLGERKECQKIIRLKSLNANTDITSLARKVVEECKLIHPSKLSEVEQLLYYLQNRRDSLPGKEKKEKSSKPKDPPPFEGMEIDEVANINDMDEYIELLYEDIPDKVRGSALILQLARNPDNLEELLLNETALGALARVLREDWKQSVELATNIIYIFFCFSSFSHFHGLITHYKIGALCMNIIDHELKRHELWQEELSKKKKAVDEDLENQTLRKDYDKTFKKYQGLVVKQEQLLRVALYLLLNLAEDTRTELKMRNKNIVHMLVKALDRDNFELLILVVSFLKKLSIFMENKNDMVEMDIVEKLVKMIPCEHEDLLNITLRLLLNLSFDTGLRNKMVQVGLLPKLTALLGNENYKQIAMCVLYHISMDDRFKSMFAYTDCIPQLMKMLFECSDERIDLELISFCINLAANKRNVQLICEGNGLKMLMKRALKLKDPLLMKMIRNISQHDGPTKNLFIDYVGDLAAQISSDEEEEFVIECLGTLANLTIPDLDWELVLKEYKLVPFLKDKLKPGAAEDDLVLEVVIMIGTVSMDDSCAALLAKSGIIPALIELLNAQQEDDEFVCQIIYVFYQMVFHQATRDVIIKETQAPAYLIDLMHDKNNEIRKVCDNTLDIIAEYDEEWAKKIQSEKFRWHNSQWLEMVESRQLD

Row | Binder | binding result [1] | binding result [2] | Kd [3] [nM]
1 | B1 | binds | binds | 
2 | B2 |  |  | 34.7 ± 0.6
